B1: Met-TNFRI171 (receptor)
chain: MDSVCPQGKYIHPQNNSICCTKCHKGTYLYNDCPGPGQDTDCRECESGSFTASENHLRHCLSCSKCRKEMGQVEISSCTVDRDTVCGCRKNQYRHYWSENLFQCFNCSLCLNGTVHLSCQEKQNTVCTCHAGFFLRENECVSCSNCKKSLECTKLCLPQIENVKGTEDSGTT
notes: also called Wild-type (TNFRI171); wild-type TNFRI
B2: Met-TNFRI126 (receptor)
chain: MDSVCPQGKYIHPQNNSICCTKCHKGTYLYNDCPGPGQDTDCRECESGSFTASENHLRHCLSCSKCRKEMGQVEISSCTVDRDTVCGCRKNQYRHYWSENLFQCFNCSLCLNGTVHLSCQEKQNTVC
notes: also called Wild-type (TNFRI126); wild-type TNFRI
B3: TNFRI126-S59 (receptor)
chain: MDSVCPQGKYIHPQNNSICCTKCHKGTYVYNDCPGPGQDTDCRECESGSFTAHENFLPACLSCSKCRKEMGQVEISSCTVDRDTVCGCRKNQYRHYWSENLFQCFNCSLCLNGTVHLSCQEQQNTVC
notes: Met-TNFRI126 superlead mutant made in E. coli
B4: TNFRI126-S60 (receptor)
chain: MDSVCPQGKYIHPQNNSICCTKCHKGTYVYNDCPGPGQDTDCRECESGSFTAHENFLPACLSCSKCRKEMGQVEISSCTVDRDTVCGCRKNQYRHYWSENLFQCFNCSLCLNGTVHLSCQENQNTVC
notes: as for B3
B5: TNFRI126-S62 (receptor)
chain: MDSVCPQGKYIHPQNNSICCTKCHKGTYVYNDCPGPGQDTDCRECESGSFTAIENFLPGCLSCSKCRKEMGQVEISSCTVDRDTVCGCRKNQYRHYWSENLFQCFNCSLCLNGTVHLSCQEQQNTVC
notes: as for B3
B6: TNFRI126-S63 (receptor)
chain: MDSVCPQGKYIHPQNNSICCTKCHKGTYVYNDCPGPGQDTDCRECESGSFTAMENFLPGCLSCSKCRKEMGQVEISSCTVDRDTVCGCRKNQYRHYWSENLFQCFNCSLCLNGTVHLSCQENQNTVC
notes: as for B3
B7: TNFRI105-S31 (receptor)
chain: MDSVCPQGKYIHPQNNSICCTKCHKGTYVYNDCPGPGQDTDCRECESGSFTAIENFLPACLSCSKCRKEMGQVEISSCTVDRDTVCGCRKNQYRHYWSENLFQCFN
notes: Met-TNFRI105 superlead mutant made in E. coli
B8: Met-TNFRI105 (receptor)
chain: MDSVCPQGKYIHPQNNSICCTKCHKGTYLYNDCPGPGQDTDCRECESGSFTASENHLRHCLSCSKCRKEMGQVEISSCTVDRDTVCGCRKNQYRHYWSENLFQCFN
notes: also called Wild-type (TNFRI105)
B9: TNFRI105-S36 (receptor)
chain: MDSVCPQGKYIHPQNNSICCTKCHKGTYVYNDCPGPGQDTDCRECESGSFTAMENFLPACLSCSKCRKEMGQVEISSCTVDRDTVCGCRKNQYRHYWSENLFQCFN
notes: as for B7
B10: TNFRI105-S41 (receptor)
chain: MDSVCPQGKYIHPQNNSICCTKCHKGTYVYNDCPGPGQDTDCRECESGSFTAHENFLPACLSCSKCRKEMGQVEISSCTVDRDTVCGCRKNQYRHYWSENLFQCFN
notes: as for B7
B11: TNFRI105-S46 (receptor)
chain: MDSVCPQGKYIHPQNNSICCTKCHKGTYVYNDCPGPGQDTDCRECESGSFTAIENFLPGCLSCSKCRKEMGQVEISSCTVDRDTVCGCRKNQYRHYWSENLFQCFN
notes: as for B7
B12: TNFRI105-S47 (receptor)
chain: MDSVCPQGKYIHPQNNSICCTKCHKGTYVYNDCPGPGQDTDCRECESGSFTAMENFLPGCLSCSKCRKEMGQVEISSCTVDRDTVCGCRKNQYRHYWSENLFQCFN
notes: as for B7
B13: TNFRI171-A22 (receptor)
chain: MDSVCPQGKYIHPQNNSICCTKCHKGTYLYNDCPGPGQDTDCRECESGSFTAMENFLPGCLSCSKCRKEMGQVEISSCTVDRDTVCGCRKNQYRHYWSENLFQCFNCSLCLNGTVHLSCQEKQNTVCTCHAGFFLRENECVSCSNCKKSLECTKLCLPQIENVKGTEDSGTT
B14: TNFRI171-A26 (receptor)
chain: MDSVCPQGKYIHPQNNSICCTKCHKGTYLYNDCPGPGQDTDCRECESGSFTAIPNFLPGCLSCSKCRKEMGQVEISSCTVDRDTVCGCRKNQYRHYWSENLFQCFNCSLCLNGTVHLSCQEKQNTVCTCHAGFFLRENECVSCSNCKKSLECTKLCLPQIENVKGTEDSGTT
B15: TNFRI171-A30 (receptor)
chain: MDSVCPQGKYIHPQNNSICCTKCHKGTYLYNDCPGPGQDTDCRECESGSFTAIPNFLPACLSCSKCRKEMGQVEISSCTVDRDTVCGCRKNQYRHYWSENLFQCFNCSLCLNGTVHLSCQEKQNTVCTCHAGFFLRENECVSCSNCKKSLECTKLCLPQIENVKGTEDSGTT
B16: TNFRI171-A2 (receptor)
chain: MDSVCPQGKYIHPQNNSICCTKCHKGTYLYNDCPGPGQDTDCRECESGSFTAIENFLPACLSCSKCRKEMGQVEISSCTVDRDTVCGCRKNQYRHYWSENLFQCFNCSLCLNGTVHLSCQEKQNTVCTCHAGFFLRENECVSCSNCKKSLECTKLCLPQIENVKGTEDSGTT
B17: TNFRI171-A8 (receptor)
chain: MDSVCPQGKYIHPQNNSICCTKCHKGTYLYNDCPGPGQDTDCRECESGSFTAFENFLPACLSCSKCRKEMGQVEISSCTVDRDTVCGCRKNQYRHYWSENLFQCFNCSLCLNGTVHLSCQEKQNTVCTCHAGFFLRENECVSCSNCKKSLECTKLCLPQIENVKGTEDSGTT
B18: TNFRI171-A9 (receptor)
chain: MDSVCPQGKYIHPQNNSICCTKCHKGTYLYNDCPGPGQDTDCRECESGSFTAMENFLPACLSCSKCRKEMGQVEISSCTVDRDTVCGCRKNQYRHYWSENLFQCFNCSLCLNGTVHLSCQEKQNTVCTCHAGFFLRENECVSCSNCKKSLECTKLCLPQIENVKGTEDSGTT
B19: TNFRI171-A10 (receptor)
chain: MDSVCPQGKYIHPQNNSICCTKCHKGTYLYNDCPGPGQDTDCRECESGSFTAWENFLPACLSCSKCRKEMGQVEISSCTVDRDTVCGCRKNQYRHYWSENLFQCFNCSLCLNGTVHLSCQEKQNTVCTCHAGFFLRENECVSCSNCKKSLECTKLCLPQIENVKGTEDSGTT
B20: TNFRI171-A15 (receptor)
chain: MDSVCPQGKYIHPQNNSICCTKCHKGTYLYNDCPGPGQDTDCRECESGSFTAYENFLPACLSCSKCRKEMGQVEISSCTVDRDTVCGCRKNQYRHYWSENLFQCFNCSLCLNGTVHLSCQEKQNTVCTCHAGFFLRENECVSCSNCKKSLECTKLCLPQIENVKGTEDSGTT
B21: TNFRI171-A16 (receptor)
chain: MDSVCPQGKYIHPQNNSICCTKCHKGTYLYNDCPGPGQDTDCRECESGSFTAKENFLPACLSCSKCRKEMGQVEISSCTVDRDTVCGCRKNQYRHYWSENLFQCFNCSLCLNGTVHLSCQEKQNTVCTCHAGFFLRENECVSCSNCKKSLECTKLCLPQIENVKGTEDSGTT
B22: TNFRI171-A18 (receptor)
chain: MDSVCPQGKYIHPQNNSICCTKCHKGTYLYNDCPGPGQDTDCRECESGSFTAHENFLPACLSCSKCRKEMGQVEISSCTVDRDTVCGCRKNQYRHYWSENLFQCFNCSLCLNGTVHLSCQEKQNTVCTCHAGFFLRENECVSCSNCKKSLECTKLCLPQIENVKGTEDSGTT
B23: TNFRI171-A21 (receptor)
chain: MDSVCPQGKYIHPQNNSICCTKCHKGTYLYNDCPGPGQDTDCRECESGSFTAIENFLPGCLSCSKCRKEMGQVEISSCTVDRDTVCGCRKNQYRHYWSENLFQCFNCSLCLNGTVHLSCQEKQNTVCTCHAGFFLRENECVSCSNCKKSLECTKLCLPQIENVKGTEDSGTT

Each binder was assayed against T1, TNF-α (UniProt P01375 77-233, limits assumed) (assay: competition ELISA: sample vs plate-bound TNFRI190 for TNF-α, from IC50, relative to wild-type TNFRI171).
T1 construct: also called tumor necrosis factor; ligand
Procedure: (§1) Each well was washed three times with 300 μL of washing buffer (0.05% Tween-20, PBS, pH 7.4) and incubated at room temperature for 2 hours with 300 μL of a blocking buffer (5% skim milk, PBS, pH 7.4). Then, each well was washed as mentioned above. A sample of interest was diluted to concentrations of 500 nM, 125 nM, 31 nM, 7.8 nM, 1.9 nM, 0.48 nM, 0.12 nM, and 0.03 nM in series and loaded in an amount of 100 μL into each well in duplicate. To each well was added 100 μL of 50 ng/ml TNF-α, followed by incubation at room temperature for 2 hours. After the wells were washed with a washing buffer, 100 μg/mL anti-TNF-α antibody solution was diluted 1/1000, added in an amount of 100 μL per each well, and incubated at room temperature for 2 hours. After the plates were washed with a washing buffer, a substrate was added in an amount of 100 μL to each well and reacted at room temperature for 15 min. In each well, 100 μL of the substrate 3,3′,5,5′-tetramethylbenzidine (RnD, Cat. No: DY999) was reacted at room temperature for 15 min, followed by adding 50 μL of 1.0 M sulfuric acid (Samchun Chemical, Cat. No: 52129) to each well to stop the reaction.
(§2) The affinity of the Met-TNFRI for TNF-α was assayed using the same procedure as in [Experimental Example 1]

How did the “Relative Affinity for Ligand (%)” value turn out when B1 was run?
Its value is 100%.

The binders below were run against T1, TNF-α (assay: competition ELISA: sample vs plate-bound TNFRI190 for TNF-α, from IC50, relative to wild-type TNFRI126).
Procedure: as §1, §2

Which “Relative Affinity for Ligand (%)” value does the source give for B2 here?
Its value is 100%.

How did the “Relative Affinity for Ligand (%)” value turn out when B3 was run?
The value was 463%.

How did the “Relative Affinity for Ligand (%)” value turn out when B4 was run?
Its value is 397%.

For B5, which “Relative Affinity for Ligand (%)” value is on record?
The value was 543%.

With B6 as the binder, how does the “Relative Affinity for Ligand (%)” value read?
The value was 486%.

What follows are binders tested against T1, TNF-α (assay: competition ELISA: sample vs plate-bound TNFRI190 for TNF-α, from IC50, relative to wild-type TNFRI105).
Procedure: as §1, §2

How did the “Relative Affinity for Ligand (%)” value turn out when B7 was run?
The value was 453%.

With B8 as the binder, how does the “Relative Affinity for Ligand (%)” value read?
Its value is 100%.

Which “Relative Affinity for Ligand (%)” value does the source give for B9 here?
Its value is 459%.

Which “Relative Affinity for Ligand (%)” value does the source give for B10 here?
The value was 403%.

Which “Relative Affinity for Ligand (%)” value does the source give for B11 here?
The value was 547%.

How did the “Relative Affinity for Ligand (%)” value turn out when B12 was run?
Its value is 497%.

What follows are binders tested against T1, TNF-α (assay: cell-based or functional assay).

B1 was tested. Which “Relative Activity (Cytotoxicity-neutralizing activity) (fold)” value (from here on “Relative Activity … (fold)”) did it give?
Its value is 1 fold.

How did the “Relative Activity … (fold)” value turn out when B13 was run?
The value was 242 fold.

With B14 as the binder, how does the “Relative Activity … (fold)” value read?
The value was 196 fold.

Which “Relative Activity … (fold)” value does the source give for B15 here?
Its value is 127 fold.

For B16, which “Relative Activity … (fold)” value is on record?
Its value is 207 fold.

B17 was tested. Which “Relative Activity … (fold)” value did it give?
The value was 120 fold.

Which “Relative Activity … (fold)” value does the source give for B18 here?
Its value is 158 fold.

How did the “Relative Activity … (fold)” value turn out when B19 was run?
The value was 44 fold.

B20 was tested. Which “Relative Activity … (fold)” value did it give?
The value was 142 fold.

B21 was tested. Which “Relative Activity … (fold)” value did it give?
Its value is 139 fold.

For B22, which “Relative Activity … (fold)” value is on record?
Its value is 126 fold.

How did the “Relative Activity … (fold)” value turn out when B23 was run?
Its value is 226 fold.

Target: T1, TNF-α
Assay: competition ELISA: sample vs plate-bound TNFRI190 for TNF-α, from IC50, relative to wild-type TNFRI126
Remark: another data set of the same source
Procedure: as §1
Affinity of Met-TNFRI and Met-TNFRI mutants for TNF-α was determined by measuring an absorbance change with concentration and evaluating IC₅₀ value by measuring an absorbance change with concentration.

For B2, which “Affinity (%)” value is on record?
The value was 100%.
